± gives the uncertainty stated by the source.

The series is described as follows: amyloid nucleation score (Sup35N fusion, yeast selection) (log enrichment); library NNK2; higher = more nucleation; inactive = no reads after selection. A digest of the protocol: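 Nucleation score: DiMSum log enrichment of output over input reads, centred on the mode score of non-aggregating sequences. Only sequences with at least 100 input reads were kept. Reads came from Illumina sequencing of plasmid inserts before and after 7 days of growth at 30°C without adenine and uracil, in psi-negative yeast expressing Sup35N fused to peptides of 20 random codons after 24 hours of induction with 100 μM copper sulfate.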
Turning to RHAHWRVSSMDSVQFMWGE, the amyloid nucleation score came out at 3.18 ± 0.12.
With RHHYHSYGSTLVKVRAGQRC the figure was 4.88 ± 0.077.
Turning to RHQCIIWDIISLPGIWLCRR, the amyloid nucleation score amounted to 1.13 ± 0.23.
The same measure for RHVCYGGQYLVANHSGM: -0.267 ± 0.65.
For RHVYWSRSPPRTYGKEWTKG, the amyloid nucleation score was determined as 0.647 ± 0.23.
With RIIGTDLSRLWWIKFKVKRG the figure was -0.091 ± 0.65; with RILQSGLGV, 0.336 ± 0.56; with RILVTGI, -0.653 ± 0.79.
As for RILWK, the amyloid nucleation score entry was “inactive”.
With RILYMMDFSFGANSIYFYWN the figure was 4.4 ± 0.065.
Substance RIRVVPKWSFISNRRNCGKL gave an amyloid nucleation score of 4.25 ± 0.054.
With RISDDWVYLLCSCKGQGFLW the figure was 0.157 ± 1; with RISECAIYARTGSYMSMRRR, 4.08 ± 0.051.
The substance RITFVILYDAFGEDMDLVSL registered an amyloid nucleation score of 2.09 ± 0.12.
The substance RITVEKHSQCALMLHRQYCV showed an amyloid nucleation score of 1.39 ± 0.16.
The same measure for RIYFGQIRGDW: 4.04 ± 0.12.
With RKEIRGLTMTRPIVDPMRTK the figure was 0.932 ± 0.81; with RKPPMPRFQLDSNRQKG, 0.313 ± 0.64; with RKQNTVQWSNHFLHCKMPST, “inactive”.
The same measure for RKVCFLAVKCGGFVCFIVRA: “inactive”; for RKVTAVHLRHPP: 2.2 ± 0.15; for RLCVILCQVMTWRMAVSILE: 0.228 ± 0.56.
RLDLYRNMAMVVWQSIDEPP: the amyloid nucleation score was 0.574 ± 0.41.
With RLEPYCILSRV, the amyloid nucleation score is -1.75 ± 0.48.
The same measure for RLFQE: -0.153 ± 1.1; for RLFYRYWCL: -0.797 ± 0.35; for RLHGGHLRRM: 0.902 ± 0.21.
As to RLIKTHVVKLFQSRWWVIGD, the amyloid nucleation score came out at 0.631 ± 0.51.
The same measure for RLILFAMTVLLASRGYNVRS: 0.402 ± 0.21.
With RLISYNSCLSWSSWG the figure was 3.48 ± 0.087.
With RLKTDRLAMIPVRPKRFPGP the figure was 0.191 ± 0.63; with RLLDFCQFPVTS, 3.7 ± 0.063; with RLLLEDASIVGLIITYYLMF, 0.085 ± 0.8.
The substance RLMRAKCMQWVSFQ showed an amyloid nucleation score of -0.034 ± 0.4.
As to RLNHGVSRSYDPPRRWAGSR, the amyloid nucleation score came out at 0.07 ± 0.61.
The substance RLNLGYYKEAVYN displayed an amyloid nucleation score of -1.65 ± 0.63.
With RLNMYSLSRLVYWAIVMRKM the figure was 0.823 ± 0.25.
The same measure for RLNYA: 0.772 ± 0.81; for RLRNLFSYWLSEERSGPDGW: 2.03 ± 0.14; for RLSCKED: 0.108 ± 0.61.
The same measure for RLSLGKGAVTDT: 0.837 ± 0.19; for RLTLVNRAGCIVCNGQGCLQ: 9.245 ± 0.069; for RLVTGGVWMDSDDSYRVIET: -0.032 ± 1.1.
For RLWCLRSTNEMAVSCYRSWD, the amyloid nucleation score was found to be 4.47 ± 0.049.
With RLYIIIRFGIVHVT the figure was -0.078 ± 0.21; with RLYNKALYANFKNYSLTCFS, -0.39 ± 0.64; with RMCDL, -1.19 ± 0.79.
With RMFVW the figure was -0.341 ± 0.37; with RMFWLIVQLGGSFDRLYGFR, 1.21 ± 0.45; with RMGKRNFEQNSANQWVPMNP, 0.691 ± 0.6.
The same measure for RMHWTKTH: -0.311 ± 1.1; for RMIYGSRRFDVDIFYFGIRN: 4.24 ± 0.074; for RMLLQGVKAVGRGNNGINTV: 0.479 ± 0.8.
Regarding RMLSLGNYGSNAYICCIVCY, the amyloid nucleation score was determined as 1.92 ± 0.36.
Take RMNFLA: the amyloid nucleation score was -0.145 ± 0.5.
With RMRVIISR the figure was -0.881 ± 0.4.
Substance RMSVYNF came in with an amyloid nucleation score of -0.177 ± 0.79.
With RMTEA the figure was 2.32 ± 0.21; with RNARDSQYDISGACGLFRDR, -0.287 ± 0.27; with RNIRWPAHISAGDKGVSGEF, -0.65 ± 1.
Turning to RNRCSSDFGSGRINVDGFNM, the amyloid nucleation score result was “inactive”.
Consider RNRRVWM, for which the amyloid nucleation score was -0.003 ± 0.41.
With RNSAHNLEMFYRGMWDGMCW the figure was -0.429 ± 0.55; with RNSVFPILLAYDASDFVARK, -0.494 ± 0.41.
With RNYLNMVYGLFFCIHCSCFS the figure was 5.853 ± 0.05; with RNYRIETSSNVIKV, 0.292 ± 0.65; with RPFLSTEKRSILMCRVVKGM, -0.254 ± 0.37.
The same measure for RPKLGSSVVRHVMFIGWGCG: 0.797 ± 0.43; for RPLCLLGRVATSKETSGRRC: 4.34 ± 0.049.
RQGPALFSKINIATLKWLSM: the amyloid nucleation score came to 0.511 ± 0.62.
With RQVAPMHLYIYSACNGAKNR the figure was 7.095 ± 0.062; with RRFLYPVGRGICMENADPFG, 1.29 ± 0.44.
With RRGGDKVIISEHV the figure was -0.757 ± 0.45; with RRGSELINYRR, -0.341 ± 0.79.
With RRIINWPNSGIGIPRSKSMF the entry was “inactive”; with RRIKPIVLPTVCFYYVSITS, “inactive”; with RRKANRVQFLSEYFLVCFVH, “inactive”.
RRLGYPYFTR had an amyloid nucleation score of -0.743 ± 0.44.
In the case of RRLYF, the amyloid nucleation score was -0.561 ± 0.52.
RRNNNFLWIDLNLMLPCYDW gave an amyloid nucleation score of 7.75 ± 0.08.
With RRNTLRYARMKSRYSFAP the figure was -0.674 ± 0.79.
With RRRCFQLK the figure was 0.294 ± 0.8; with RRRIWATM, -0.12 ± 0.31.
As to RRSFTTADTCLLIS, the amyloid nucleation score was -0.695 ± 0.54.
The same measure for RRSQLRLILTFR: -0.223 ± 0.29; for RRVDWDYLPLFMQAAPYSWK: -0.197 ± 0.22.
The same measure for RRVGTC: -0.097 ± 0.74; for RRVSAIYYRSLCCLAHYFRL: 0.219 ± 1.
For RRWQTTS, the amyloid nucleation score entry was “inactive”.
Take RRYAKNMFRDLGWPVPTRSD: the amyloid nucleation score was found to be 3.09 ± 0.11.
The same measure for RRYHRR: 1.42 ± 0.38.
RRYKVDYTPSCIESPGVVLA: the amyloid nucleation score was -1.19 ± 0.78.
On to RSCSMMVVHLYRGYGKFDTP, for which the amyloid nucleation score was -0.354 ± 0.76.
RSDMCSAMIFWSELVKWQDG returned an amyloid nucleation score of 3.84 ± 0.091.
In turn, RSDMH showed an amyloid nucleation score of 0.673 ± 0.44.
With RSDVSLVYNLWALWWAR the figure was 0.906 ± 0.52.
The same measure for RSFRECQDCGMQMFISRRLV: 0.15 ± 0.18.
The same measure for RSFYIAVSYMGCICIMPIRR: 2.89 ± 0.13.
RSGLYM gave an amyloid nucleation score of -0.55 ± 0.64.
The same measure for RSILSCEGPDSLLEAFNEQI: 0.625 ± 0.64.
RSITGCDWFLH gave an amyloid nucleation score of 0.063 ± 1.1.
Regarding RSKFLFYIYSGFEIRRKINT, the amyloid nucleation score entry is “inactive”.
As to RSLDIARAY, the amyloid nucleation score was -1.06 ± 0.4.
RSNSMMLCFASDIVRFYHMG: the amyloid nucleation score was found to be 2.71 ± 0.14.
Take RSRARSWFLDKDMLLSKDRA: the amyloid nucleation score entry was “inactive”.

The values above are taken from the supplement of paper PMC12042874.
